Assay results: patent US20140287471A1, “VARIANT CBH I POLYPEPTIDES WITH REDUCED PRODUCT INHIBITION” (BP CORPORATION NORTN AMERICA INC., priority 2011, published 2014)
Residue numbers refer to the chain shown, from its start. Like-named read-outs stand apart in the source and are kept apart here.

B1: 268A+411— Leu (protein, UniProt P62694 18-513, looked up, variant R268A R411L)
Exoglucanase 1: QSACTLQSETHPPLTWQKCSSGGTCTQQTGSVVIDANWRWTHATNSSTNCYDGNTWSSTLCPDNETCAKNCCLDGAAYASTYGVTTSGNSLSIGFVTQSAQKNVGARLYLMASDTTYQEFTLLGNEFSFDVDVSQLPCGLNGALYFVSMDADGGVSKYPTNTAGAKYGTGYCDSQCPRDLKFINGQANVEGWEPSSNNANTGIGGHGSCCSEMDIWEANSISEALTPHPCTTVGQEICEGDGCGGTYSDNAYGGTCDPDGCDWNPYRLGNTSFYGPGSSFTLDTTKKLTVVTQFETSGAINRYYVQNGVTFQQPNAELGSYSGNELNDDYCTAEEAEFGGSSFSDKGGLTQFKKATSGGMVLVMSLWDDYYANMLWLDSTYPTNETSSTPGAVLGSCSTSSGVPAQVESQSPNAKVTFSNIKFGPIGSTGNPSGGNPPGGNRGTTTTRRPATTTGSSPGPTQSHYGQCGGIGYSGPTVCASGTTCQVLNPYYSQCL
B2: 268A+411Thr (protein, UniProt P62694 18-513, looked up, variant R268A R411T)
Exoglucanase 1: B1 Exoglucanase 1 with L394T
B3: 268A+411Glu (protein, UniProt P62694 18-513, looked up, variant R268A R411E)
Exoglucanase 1: B1 Exoglucanase 1 with L394E
B4: 411— Asp (protein, UniProt P62694 18-513, looked up, variant R411D)
Exoglucanase 1: B1 Exoglucanase 1 with A251R, L394D
B5: 268A+411— Glu (protein, UniProt P62694 18-513, looked up, variant R268A R411E)
Exoglucanase 1: B1 Exoglucanase 1 with L394E
B6: 268A+411— Trp (protein, UniProt P62694 18-513, looked up, variant R268A R411W)
Exoglucanase 1: B1 Exoglucanase 1 with L394W
B7: 411— Cys (protein, UniProt P62694 18-513, looked up, variant R411C)
Exoglucanase 1: B1 Exoglucanase 1 with A251R, L394C
B8: 268A+411Asp (protein, UniProt P62694 18-513, looked up, variant R268A R411D)
Exoglucanase 1: B1 Exoglucanase 1 with L394D
B9: 268A+411— Cys (protein, UniProt P62694 18-513, looked up, variant R268A R411C)
Exoglucanase 1: B1 Exoglucanase 1 with L394C
B10: 411His (protein, UniProt P62694 18-513, looked up, variant R411H)
Exoglucanase 1: B1 Exoglucanase 1 with A251R, L394H
B11: 411— Ser (protein, UniProt P62694 18-513, looked up, variant R411S)
Exoglucanase 1: B1 Exoglucanase 1 with A251R, L394S
B12: 268A+411— Gly (protein, UniProt P62694 18-513, looked up, variant R268A R411G)
Exoglucanase 1: B1 Exoglucanase 1 with L394G
B13: 411— Tyr (protein, UniProt P62694 18-513, looked up, variant R411Y)
Exoglucanase 1: B1 Exoglucanase 1 with A251R, L394Y
B14: 268— Ala (protein, UniProt P62694 18-513, looked up, variant R268A)
Exoglucanase 1: B1 Exoglucanase 1 with L394R
B15: 268A+411— Val (protein, UniProt P62694 18-513, looked up, variant R268A R411V)
Exoglucanase 1: B1 Exoglucanase 1 with L394V
B16: 411Thr (protein, UniProt P62694 18-513, looked up, variant R411T)
Exoglucanase 1: B1 Exoglucanase 1 with A251R, L394T
B17: 268A+411— Met (protein, UniProt P62694 18-513, looked up, variant R268A R411M)
Exoglucanase 1: B1 Exoglucanase 1 with L394M
B18: 268Cys (protein, UniProt P62694 18-513, looked up, variant R268C)
Exoglucanase 1: B1 Exoglucanase 1 with A251C, L394R
B19: 268A+411Gln (protein, UniProt P62694 18-513, looked up, variant R268A R411Q)
Exoglucanase 1: B1 Exoglucanase 1 with L394Q
B20: 268Ser (protein, UniProt P62694 18-513, looked up, variant R268S)
Exoglucanase 1: B1 Exoglucanase 1 with A251S, L394R
B21: 411Ser (protein, UniProt P62694 18-513, looked up, variant R411S)
Exoglucanase 1: B1 Exoglucanase 1 with A251R, L394S
B22: 268A+411— Asp (protein, UniProt P62694 18-513, looked up, variant R268A R411D)
Exoglucanase 1: B1 Exoglucanase 1 with L394D
B23: 411Arg (protein, UniProt P62694 18-513, looked up)
Exoglucanase 1: B1 Exoglucanase 1 with A251R, L394R
B24: 268Glu (protein, UniProt P62694 18-513, looked up, variant R268E)
Exoglucanase 1: B1 Exoglucanase 1 with A251E, L394R
B25: 411— Glu (protein, UniProt P62694 18-513, looked up, variant R411E)
Exoglucanase 1: B1 Exoglucanase 1 with A251R, L394E

How the values were obtained:
[1] = 4-MUL assay, specific activity (Example 2); format: biochemical; settings: for SA (μmol 4 MU/min/mg) (MUL Data): primary screening, 10 μL enzyme, n=1; for 268A+411— Measured Specific Activity (SA) / 268A+411— Δ SA* (change in specific activity; ratio of variant: WT): double mutant 268A+411X; for 411— Measured Specific Activity (SA) / 411— Δ SA* (change in specific activity; ratio of variant: WT): 411 single substitution; for 268— Measured Specific Activity (SA) / 268— Δ SA* (change in specific activity; ratio of variant: WT): 268 single substitution
Summary of the method: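 Specific activity derived from 4-MU standard curves and HPLC-quantified enzyme. Initial rates were taken over the first 15 min, with an endpoint read at 1 h (pH 10 carbonate quench), all at ex 365/em 450 nm. Conditions: 0.5 mM 4-MUL, 5 μg/mL enzyme, MES pH 6, 25 mM gluconolactone, cellobiose optional.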

[2] = 4-MUL cellobiose tolerance/inhibition assay, dose-response IC50 (Example 2); format: biochemical; settings: for Tolerance at 1 mM CB (MUL Data): 1 mM cellobiose; for synergy of double mutant (measured vs expected additive IC50): measured versus expected additive IC50
Summary of the method: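 IC50 reflects cellobiose concentration halving activity, fitted by four-parameter dose-response with zero activity fixed at knockout-strain background. Assays used 4-MUL (0.5 mM) with enzyme at 5 μg/mL or less, pH 6 MES, 25 mM gluconolactone blocking BG, cellobiose up to 100 mM; 4-MU fluorescence read.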

[3] = primary screening, 10 μL enzyme, cellobiose range 0.0001-100 mM, n=1, read-out: IC50 (MUL Data)
[4] = double mutant 268A+411X, averaged IC50 from Tables 8-11, read-out: 268A+411— Measured (merged IC50)
[5] = double mutant 268A+411X, expected IC50 (additive values of single mutations), read-out: 268A+411— Expected IC50
[6] = 411 single substitution, averaged IC50 from Tables 8-11, read-out: 411— Measured (merged IC50)
[7] = 268 single substitution, averaged IC50 from Tables 8-11, read-out: 268— Measured (merged IC50)

Molecule	SA (μmol 4 MU/min/mg) (MUL Data) [1]	Tolerance at 1 mM CB (MUL Data) ([2]; primary screening, n=1) [%]	IC50 [2, 3] [mM]	also measured
B1	1.72	99	25.1	
B2				268A+411— Measured Specific Activity (SA) [1]: 1.78 μmol 4 MU/min/mg CBH I; 268A+411— Δ SA* (change in specific activity; ratio of variant: WT) [1]: 2.3; IC50 [2, 4]: 11.7 mM; IC50 [2, 5]: 2.54 mM; synergy of double mutant (measured vs expected additive IC50) ([2]; double mutant 268A+411X): 4.6
B3				268A+411— Δ SA* (change in specific activity; ratio of variant: WT) [1]: 0.6; IC50 [2, 4]: 14.4 mM; IC50 [2, 5]: 3.81 mM; synergy of double mutant (measured vs expected additive IC50) ([2]; double mutant 268A+411X): 3.8
B4	0.23	106	2.08	
B5	0.74	95	16.9	
B6	3.07	97	28.4	
B7	0.52	71	1.6	
B8				268A+411— Measured Specific Activity (SA) [1]: 2.21 μmol 4 MU/min/mg CBH I; 268A+411— Δ SA* (change in specific activity; ratio of variant: WT) [1]: 2.9; IC50 [2, 4]: 11.5 mM; IC50 [2, 5]: 2.28 mM; synergy of double mutant (measured vs expected additive IC50) ([2]; double mutant 268A+411X): 5.0
B9	1.58	85	7.66	
B10				411— Measured Specific Activity (SA) [1]: 0.80 μmol 4 MU/min/mg CBH I; 411— Δ SA* (change in specific activity; ratio of variant: WT) [1]: 1.0; IC50 [2, 6]: 2.93 mM
B11	0.51	60	1.05	
B12	0.88	91	12.1	
B13	0.67	85	5.4	
B14	1.42	48	0.87	
B15	1.39	102	15.1	
B16				411— Measured Specific Activity (SA) [1]: 0.48 μmol 4 MU/min/mg CBH I; 411— Δ SA* (change in specific activity; ratio of variant: WT) [1]: 0.6; IC50 [2, 6]: 1.97 mM
B17	0.87	97	11.5	
B18				268— Measured Specific Activity (SA) [1]: 1.81 μmol 4 MU/min/mg CBH I; 268— Δ SA* (change in specific activity; ratio of variant: WT) [1]: 2.4; IC50 [2, 7]: 0.38 mM
B19				268A+411— Measured Specific Activity (SA) [1]: 1.22 μmol 4 MU/min/mg CBH I; 268A+411— Δ SA* (change in specific activity; ratio of variant: WT) [1]: 1.6; IC50 [2, 4]: 13.7 mM; IC50 [2, 5]: 3.09 mM; synergy of double mutant (measured vs expected additive IC50) ([2]; double mutant 268A+411X): 4.5
B20				268— Measured Specific Activity (SA) [1]: 1.85 μmol 4 MU/min/mg CBH I; 268— Δ SA* (change in specific activity; ratio of variant: WT) [1]: 2.4; IC50 [2, 7]: 0.5 mM
B21				411— Measured Specific Activity (SA) [1]: 0.60 μmol 4 MU/min/mg CBH I; 411— Δ SA* (change in specific activity; ratio of variant: WT) [1]: 0.8; IC50 [2, 6]: 0.87 mM
B22	2.12	93	10.2	
B23				411— Measured Specific Activity (SA) [1]: 0.83 μmol 4 MU/min/mg CBH I; 411— Δ SA* (change in specific activity; ratio of variant: WT) [1]: 1.1; IC50 [2, 6]: 0.05 mM
B24				268— Measured Specific Activity (SA) [1]: 1.84 μmol 4 MU/min/mg CBH I; 268— Δ SA* (change in specific activity; ratio of variant: WT) [1]: 2.4; IC50 [2, 7]: 0.63 mM
B25	0.38	76	2.95	
